In patent US20160237156A1:

Legend:
CXCR4 (human) [1] = biological target: CXCR4 (human) (UniProt P61073); test: flow cytometry on Jurkat cells, competition with fluorescein conjugated 12G5 (66.6 nM) as competitor
[2] = biological target: SNAP-tag-CXCR4 (Tag-lite labeled CXCR4 cells, Cisbio Bioassays) (UniProt P61073); test: Tag-lite HTRF competition with 50 nM fluorescent SDF-1 on Tag-lite labeled CXCR4 cells
[3] = biological target: SNAP-tag-CXCR4 (Tag-lite labeled CXCR4 cells, Cisbio Bioassays) (UniProt P61073); test: Tag-lite HTRF competition with 50 nM fluorescent SDF-1, Cheng-Prusoff
CXCR4 (human) [4] = biological target: CXCR4 (human) (UniProt P61073); test: flow cytometry on CXCR4 transfected CHO cells, 1 µg/ml antibody
CXCR4 (human) [5] = biological target: CXCR4 (human) (UniProt P61073); test: cell-based or functional assay

Chain of CXCR4 (human) (P61073 whole entry): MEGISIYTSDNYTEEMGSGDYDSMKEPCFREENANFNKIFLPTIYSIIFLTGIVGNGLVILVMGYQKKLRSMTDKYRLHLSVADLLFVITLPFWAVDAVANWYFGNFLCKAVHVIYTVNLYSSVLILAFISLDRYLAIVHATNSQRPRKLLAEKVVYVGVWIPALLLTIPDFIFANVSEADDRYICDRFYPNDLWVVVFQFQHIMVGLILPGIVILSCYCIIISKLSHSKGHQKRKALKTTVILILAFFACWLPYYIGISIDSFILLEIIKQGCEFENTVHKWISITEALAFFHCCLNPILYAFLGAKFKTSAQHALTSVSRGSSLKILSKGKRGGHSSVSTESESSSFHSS
Chain of SNAP-tag-CXCR4 (Tag-lite labeled CXCR4 cells, Cisbio Bioassays) (P61073 whole entry): as above

B1: BLV1H12-beta BCCX2 HC 1 IgG (antibody, V domains shown)
VH: QVQLRESGPSLVKPSQTLSLTCTASGFSLSDKAVGWVRQAPGKALEWLGSIDTGGNTGYNPGLKSRLSITKDNSKSQVSLSVSSVTTEDSATYYCTSVHQETKKYQSYRKCRGGRRWCYQKSYTYNYEWHVDVWGQGLLVTVSS
VL: QAVLNQPSSVSGSLGQRVSITCSGSSSNVGNGYVSWYQLIPGSAPRTLIYGDTSRASGVPDRFSGSRSGNTATLTISSLQAEDEADYFCASAEDSSSNAVFGSGTTLTVLG
CXCR4 (human) [1]
  IC50: 39.3 nM
[2]
  IC50: 9.58 nM
[3]
  Ki: 2.12 nM
CXCR4 (human) [4]
  flow cytometry peak shift: 73.8%
CXCR4 (human) [5]
  inhibition of SDF-1 induced migration of Ramos cells, EC50: 8.5 nM
